{"source": "patent US20020055467A1", "about": "(Biogen, published 2002)", "binders": {"B1": {"name": "fusion protein between the extracellular domain of rat GFRα1 and the Fc domain of human IgG1 (Fc fusion, UniProt Q62997 25-430, looked up, not shown: a dimerising Fc or GST)", "chain": "DRLDCVKASDQCLKEQSCSTKYRTLRQCVAGKETNFSLTSGLEAKDECRSAMEALKQKSLYNCRCKRGMKKEKNCLRIYWSMYQSLQGNDLLEDSPYEPVNSRLSDIFRAVPFISDVFQQVEHISKGNNCLDAAKACNLDDTCKKYRSAYITPCTTSMSNEVCNRRKCHKALRQFFDKVPAKHSYGMLFCSCRDIACTERRRQTIVPVCSYEERERPNCLSLQDSCKTNYICRSRLADFFTNCQPESRSVSNCLKENYADCLLAYSGLIGTVMTPNYVDSSSLSVAPWCDCSNSGNDLEDCLKFLNFFKDNTCLKNAIQAFGNGSDVTMWQPAPPVQTTTATTTTAFRVKNKPLGPAGSENEIPTHVLPPCANLQAQKLKSNVSGSTHLCLSDSDFGKDGLAGASS", "notes": "extracellular domain; Construct described in Sanicola et al. 1997; also called rGFRα1-Ig"}}, "target": "T1, fusion protein between the extracellular domain of rat RET and placental alkaline phosphatase (rat, UniProt G3V9H8 24-637)", "T1 construct": "extracellular domain; Used as conditioned medium from 293 EBNA cells; Construct described in Sanicola et al. 1997; also called RET-AP", "T1 sequence (G3V9H8 24-637)": "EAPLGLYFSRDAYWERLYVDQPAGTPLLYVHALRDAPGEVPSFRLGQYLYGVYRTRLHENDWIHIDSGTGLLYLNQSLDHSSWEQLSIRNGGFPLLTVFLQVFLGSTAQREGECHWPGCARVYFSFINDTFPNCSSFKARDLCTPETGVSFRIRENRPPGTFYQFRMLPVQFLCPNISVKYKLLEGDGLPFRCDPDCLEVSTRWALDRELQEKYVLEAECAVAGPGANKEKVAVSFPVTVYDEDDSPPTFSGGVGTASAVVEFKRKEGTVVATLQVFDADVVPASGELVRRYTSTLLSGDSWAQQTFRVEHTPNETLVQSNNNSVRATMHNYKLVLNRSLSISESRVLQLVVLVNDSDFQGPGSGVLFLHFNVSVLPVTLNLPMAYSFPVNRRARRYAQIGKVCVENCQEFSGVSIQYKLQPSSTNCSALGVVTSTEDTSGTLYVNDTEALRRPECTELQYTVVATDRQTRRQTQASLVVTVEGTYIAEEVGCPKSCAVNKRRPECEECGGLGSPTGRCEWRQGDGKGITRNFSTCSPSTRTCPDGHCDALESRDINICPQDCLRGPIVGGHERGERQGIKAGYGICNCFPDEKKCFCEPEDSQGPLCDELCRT", "assay": "ternary complex assay without ligand (parental CHO medium or straight medium)", "experimental": "Dynex Microlite-1 ELISA plates (Dynex Technologies) were coated with 1 μg/ml goat antibody specific for human Fc in 50 mM bicarbonate/carbonate, pH 9.6 for 16 hr. The plates were emptied and filled with 300 μl of 1% I-block (Tropix) in TBS/0.5% Tween-20 (TBST), for 1 hr. After washing three times with TBST the wells were filled with 100 μl of 1 μg/ml rGFRα1-Ig or mGFRα3-Ig diluted in conditioned media from 293 EBNA cells expressing the RET-AP fusion gene. 100 ul of conditioned media from the CHO neublastin clones was then added to the top well of a column of wells, and 2 fold serial dilutions were performed down each row of wells, and incubated for 1.5 hr at room temperature. The plates were then washed three times with TBST, and twice with 200 mM Tris pH9.8, 10 mM MgCl₂ (CSPD buffer). The wash solution was then replaced with 425 μM CSPD (Tropix) in CSPD buffer containing 1 mg/ml Sapphire chemiluminescence enhancer (Tropix), and incubated for 30′ at room temperature. The chemiluminescent output was measured using a Dynatech luminometer.\nThe initial experiments investigated whether neublastin produced by the CHO cell lines could mediate the binding of GFRα1 or GFRα3 to the extracellular domain of RET.", "data": [{"binder": "B1", "values": [{"measurement": "binding result", "value": "no binding"}]}]}
